Here are results for 5 molecules from patent publication US20250340651A1 (CULLINAN MICA, published 2025).

One may read the Kd as the concentration at which binding is half-saturated. Low readings indicate a tighter complex, high ones a looser complex. As a reminder, the koff is a measure of how fast the partners let go of each other. Higher therefore signals a short-lived complex. Broadly, the kon is the second-order rate constant of association. What is called EC50 (read off the curve) is the concentration giving half of the maximal effect.

The target of assay [1] is MICA antigen of Table 2 (purified 6×His-MICA*08 or 6×His-MICA*04 protein). As to the kind of experiment: BLI (ForteBio Octet Red96); mAb captured on anti-mouse IgG Fc sensors, 6×His-MICA in solution, 1:1 model. As to the method:
Affinity kinetics was determined on a ForteBio Octet Red96 analyzer. […] Sensors were washed in assay buffer and then incubated with purified 6×His-MICA*08 or 6×His-MICA*04 proteins (100 nM), in 2-fold dilution series for 5 minutes in assay buffer to determine association kinetics of the antibody with the protein antigen. Sensors were then incubated in assay buffer for 10 minutes to determine dissociation kinetics. The resulting kinetics parameters were calculated with ForteBio analysis suite 8.0 using a 1:1 model.
Background: In BLI a coated tip is dipped into the sample, and binding shifts an interference pattern.

In another assay the target is T1, CD32A (167His).
T1 construct: also called FcγRIIA 167His; not shown: The vendor's tag
T1 chain: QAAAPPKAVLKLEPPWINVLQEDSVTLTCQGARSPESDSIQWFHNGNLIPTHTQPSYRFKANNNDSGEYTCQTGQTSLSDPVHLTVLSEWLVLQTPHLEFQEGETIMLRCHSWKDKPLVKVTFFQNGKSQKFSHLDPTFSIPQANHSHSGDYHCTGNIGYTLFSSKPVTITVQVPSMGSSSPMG
As to the kind of experiment: Biacore (SPR), receptor loaded on the chip, antibody 296.3 to 24000 nM as analyte, steady state analysis (FIG. 9). For orientation: In SPR one partner is held on a chip, and binding of the other changes the refractive index at the surface.

Another assay deals with T2, CD32B (human, UniProt P31994).
T2 construct: also called FcγRIIB
T2 sequence (receptor, looked up): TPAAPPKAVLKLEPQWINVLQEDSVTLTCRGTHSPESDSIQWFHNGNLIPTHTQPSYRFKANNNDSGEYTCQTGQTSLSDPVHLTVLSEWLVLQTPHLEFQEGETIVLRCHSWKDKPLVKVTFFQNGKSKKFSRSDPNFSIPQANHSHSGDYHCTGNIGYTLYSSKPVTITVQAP
The description is as above.

The target of the next assay is T3, human FcγRI (human, UniProt P12314 16-288, limits assumed).
T3 construct: Biacore partner; also called FcγR1
In words: Biacore (SPR), receptor loaded on the chip, antibody 0.411 to 33.33 nM as analyte, 1:1 affinity analysis (FIG. 9).

The target in a further assay is T4, CD16A (176 Phe) (human, UniProt P08637).
T4 construct: also called FcγRIIIA 176Phe
In words: Biacore (SPR), receptor loaded on the chip, antibody as analyte, steady state analysis (FIG. 9).

In a further assay the target is T5, CD16A (176 Val) (human, UniProt P08637).
T5 construct: also called FcγRIIIA 176 Val
The assay is described as above.

A further assay concerns the target human FcRn (human, UniProt P55899 24-297; P61769 21-119, limits assumed). As to the kind of experiment: Biacore (SPR), steady state analysis, pH 6.0; Relative Binding +++.
Assay [2] addresses T6, Recombinant MICA*04 protein.
T6 construct: Coated on ELISA plates
T6 sequence (Q29983 whole entry, species assumed, looked up): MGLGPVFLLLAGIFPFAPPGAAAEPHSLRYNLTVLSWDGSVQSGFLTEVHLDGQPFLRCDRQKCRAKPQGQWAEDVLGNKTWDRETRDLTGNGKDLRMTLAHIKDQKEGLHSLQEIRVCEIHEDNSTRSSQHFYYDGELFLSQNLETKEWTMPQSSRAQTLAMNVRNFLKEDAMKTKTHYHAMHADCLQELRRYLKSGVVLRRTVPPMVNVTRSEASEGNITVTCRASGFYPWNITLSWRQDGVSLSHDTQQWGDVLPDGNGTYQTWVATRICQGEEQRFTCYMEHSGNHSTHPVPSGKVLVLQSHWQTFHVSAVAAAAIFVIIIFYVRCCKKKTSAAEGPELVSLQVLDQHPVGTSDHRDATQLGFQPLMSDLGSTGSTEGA
In words: ELISA on coated recombinant antigen (1 µg/ml), goat anti-mouse IgG-HRP, OD 450 nm. The method, then: (§1) Recombinant MICA*01, MICA*02, MICA*04, MICA*08, MICA*09, and MICB proteins were diluted to 1 μg/ml in 50 mM sodium carbonate buffer, pH 9.6, and coated onto high binding 96-well microplates (Corning #9018), 100 ng in 100 μl per well. The following morning, coated ELISA plates were washed three times with TBS-Tween-20, pH 7.4 and then blocked in SuperBlock T20 Blocking Buffer (Pierce #37536). After blocking, ELISA plates were washed once with TBS-T and incubated with serially diluted anti-MICA antibody ([…]) for approximately two hours at room temperature. Following the incubation, ELISA plates were washed three times with TBS-T and then incubated with Goat anti-Mouse IgG (H+L)-HRP conjugate (ThermoFisher Scientific #626520) for 45 minutes at room temperature with shaking (˜400 rpm). After the incubation, ELISA plates were washed three times with TBS-T and incubated with Super Sensitive Liquid Substrate TMB (Sigma #T4444), 100 μl per well, until color development was sufficient. The reaction was stopped with 1N sulfuric acid, 100 μl per well. Optical density (OD) values were measured at 450 nm using a microplate reader.
For orientation: In an ELISA, binding on a coated surface is turned into a signal by an enzyme label.

The target in assay [3] is T7, Recombinant MICA*01 protein (Homo sapiens (Human), UniProt Q29983 24-307).
T7 construct: Coated on ELISA plates
T7 sequence: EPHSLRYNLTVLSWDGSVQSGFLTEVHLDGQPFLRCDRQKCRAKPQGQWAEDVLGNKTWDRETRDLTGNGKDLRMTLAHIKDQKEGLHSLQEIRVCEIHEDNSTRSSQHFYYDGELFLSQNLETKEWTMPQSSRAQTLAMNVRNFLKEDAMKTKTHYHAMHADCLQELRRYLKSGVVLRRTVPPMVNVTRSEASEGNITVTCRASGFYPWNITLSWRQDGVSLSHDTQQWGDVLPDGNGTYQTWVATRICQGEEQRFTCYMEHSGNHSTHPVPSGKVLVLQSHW
The assay is described as above. As to the method: as §1

For assay [4], the target named is T8, Recombinant MICA*08 protein.
T8 construct: Coated on ELISA plates
T8 sequence (Q29983 whole entry, species assumed, looked up): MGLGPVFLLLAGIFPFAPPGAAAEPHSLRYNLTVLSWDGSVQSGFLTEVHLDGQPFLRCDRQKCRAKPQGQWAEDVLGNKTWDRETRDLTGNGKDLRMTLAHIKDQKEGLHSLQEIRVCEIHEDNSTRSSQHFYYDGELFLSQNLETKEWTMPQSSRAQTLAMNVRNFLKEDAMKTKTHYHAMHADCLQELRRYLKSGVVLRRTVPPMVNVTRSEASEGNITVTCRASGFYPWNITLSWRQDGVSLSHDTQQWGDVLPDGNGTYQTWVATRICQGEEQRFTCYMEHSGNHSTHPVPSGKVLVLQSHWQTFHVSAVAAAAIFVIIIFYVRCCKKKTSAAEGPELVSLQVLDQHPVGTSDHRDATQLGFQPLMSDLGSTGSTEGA
The assay is described as above. As to the method:
as §1

Assay [5] deals with T9, Recombinant MICA*09 protein.
T9 construct: Coated on ELISA plates
T9 sequence (Q29983 whole entry, species assumed, looked up): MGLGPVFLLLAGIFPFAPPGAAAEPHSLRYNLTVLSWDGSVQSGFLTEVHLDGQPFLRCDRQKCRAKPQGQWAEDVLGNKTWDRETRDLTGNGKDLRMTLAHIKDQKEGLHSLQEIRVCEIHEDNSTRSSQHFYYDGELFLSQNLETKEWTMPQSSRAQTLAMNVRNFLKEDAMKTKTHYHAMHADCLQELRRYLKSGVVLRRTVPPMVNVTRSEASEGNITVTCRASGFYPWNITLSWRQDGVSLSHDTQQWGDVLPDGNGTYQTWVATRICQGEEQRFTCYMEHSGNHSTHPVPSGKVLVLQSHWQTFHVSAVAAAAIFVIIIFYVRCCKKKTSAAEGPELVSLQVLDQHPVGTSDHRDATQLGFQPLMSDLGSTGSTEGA
Described as above. The method, then: as §1

Assay [6] has as its target T10, Recombinant MICA*02 protein.
T10 construct: Coated on ELISA plates
T10 sequence (Q29983 whole entry, species assumed, looked up): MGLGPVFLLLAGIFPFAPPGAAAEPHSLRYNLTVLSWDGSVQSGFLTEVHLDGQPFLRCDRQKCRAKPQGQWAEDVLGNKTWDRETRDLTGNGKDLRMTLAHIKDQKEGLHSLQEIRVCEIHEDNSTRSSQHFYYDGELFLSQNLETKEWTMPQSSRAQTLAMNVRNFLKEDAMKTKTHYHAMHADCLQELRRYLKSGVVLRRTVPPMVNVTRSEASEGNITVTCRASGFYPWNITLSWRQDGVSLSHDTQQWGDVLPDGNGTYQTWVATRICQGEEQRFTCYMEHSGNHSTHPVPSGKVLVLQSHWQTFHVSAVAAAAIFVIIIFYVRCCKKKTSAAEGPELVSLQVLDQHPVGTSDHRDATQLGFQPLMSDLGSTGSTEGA
The assay is described as above. The method, then:
as §1

The target of the next assay is T11, Recombinant MICB protein (UniProt Q29980 23-298, limits assumed).
T11 construct: Coated on ELISA plates
T11 sequence (looked up): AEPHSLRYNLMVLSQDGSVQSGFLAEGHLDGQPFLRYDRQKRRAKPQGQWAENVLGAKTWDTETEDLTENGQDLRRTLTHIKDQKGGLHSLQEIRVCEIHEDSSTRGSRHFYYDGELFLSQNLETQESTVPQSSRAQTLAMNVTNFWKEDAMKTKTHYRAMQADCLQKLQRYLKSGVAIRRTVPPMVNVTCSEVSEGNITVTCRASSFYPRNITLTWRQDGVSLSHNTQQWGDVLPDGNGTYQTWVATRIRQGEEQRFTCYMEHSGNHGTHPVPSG
The assay is described as above. The method, then:
as §1

T4 sequence (P08637 17-208 limits assumed): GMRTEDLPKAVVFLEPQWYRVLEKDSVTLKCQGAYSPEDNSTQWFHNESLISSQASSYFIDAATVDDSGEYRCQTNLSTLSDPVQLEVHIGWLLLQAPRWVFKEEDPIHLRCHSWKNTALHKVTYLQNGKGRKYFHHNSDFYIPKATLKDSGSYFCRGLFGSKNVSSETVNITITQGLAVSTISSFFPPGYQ
T3 sequence (P12314 16-288 limits assumed): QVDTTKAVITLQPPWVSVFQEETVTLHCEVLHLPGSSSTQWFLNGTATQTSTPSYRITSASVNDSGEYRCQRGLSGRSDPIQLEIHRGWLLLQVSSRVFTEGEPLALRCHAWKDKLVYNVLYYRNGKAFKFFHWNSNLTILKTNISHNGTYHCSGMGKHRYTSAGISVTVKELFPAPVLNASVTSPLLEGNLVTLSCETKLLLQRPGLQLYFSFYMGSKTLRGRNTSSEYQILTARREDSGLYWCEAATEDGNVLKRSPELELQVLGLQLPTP
T5 sequence (P08637 17-208 F176V limits assumed): as the sequence (P08637 17-208 limits assumed) above, with F160V counted along it
Sequence of human FcRn (P55899 24-297 limits assumed, chain 1 of 2): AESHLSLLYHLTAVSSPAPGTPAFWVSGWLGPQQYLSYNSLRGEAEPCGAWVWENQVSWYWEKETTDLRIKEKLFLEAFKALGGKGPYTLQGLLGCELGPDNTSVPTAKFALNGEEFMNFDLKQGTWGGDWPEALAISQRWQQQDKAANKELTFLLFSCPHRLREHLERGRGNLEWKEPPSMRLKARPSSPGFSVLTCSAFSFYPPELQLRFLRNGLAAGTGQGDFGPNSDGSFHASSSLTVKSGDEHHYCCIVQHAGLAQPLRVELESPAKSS
Sequence of human FcRn (P61769 21-119 limits assumed, chain 2 of 2): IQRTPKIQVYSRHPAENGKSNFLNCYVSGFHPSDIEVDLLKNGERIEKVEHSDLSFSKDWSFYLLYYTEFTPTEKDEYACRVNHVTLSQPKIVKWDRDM

B1: 16F10.C12 (antibody, V domains shown)
VH: EVQLQESGPGLVAPSQSLSITCTVSGFSLTAFGVNWVRQPPGKGLEWLGMIWGDGNTDYNSTLRSRLSISKDNSKSQVFLKLNSLQTDDTARYFCARETYYGNYAGLGYWGQGTLVTVSA
VL: QIVLTQSPAIMSASIGERVTMTCTASSSVSSNYLHWYQQKPRSSPKLWIYTTSNLASGVPTRFSGSGSGTSYSLTISSMEAEDAATYYCHQFHRSPFTFGSGTKLEIK
notes: Mouse monoclonal: captured on anti-mouse IgG Fc sensors
In assay [1], B1 yielded a Kd of 6.45 nM, a koff of 0.000548 s⁻¹ and a kon of 93300 M⁻¹ s⁻¹.

B2: anti-MICA/B 3F9H1L3L wild type antibody (antibody, human IgG1, kappa)
heavy: not shown
light: DIVMTQSPLSLPVTPGEPASISCRSSKSLLHSNLNTYLYWFLQKPGQSPQILIYRMSNLASGVPDRFSGSGSGTAFTLKISRVEAEDVGVYYCMQHLEYPFTFGPGTKLEIKRTVAAPSVFIFPPSDEQLKSGTASVVCLLNNFYPREAKVQWKVDNALQSGNSQESVTEQDSKDSTYSLSSTLTLSKADYEKHKVYACEVTHQGLSSPVTKSFNRGEC
notes: also called CLN-619; CLN619; copies: 2 + 2
Turning to B2, the binding result with CD32A (167His), with CD32B, with human FcγRI, in the assay with CD16A (176 Phe) and with CD16A (176 Val) was “binds” in each case. The dissociation constant Kd with human FcRn was determined as 489 nM.

B3: anti-MICA/B 3F9H1L3L afucosylated antibody (antibody, human IgG1, kappa)
heavy: not shown
light: DIVMTQSPLSLPVTPGEPASISCRSSKSLLHSNLNTYLYWFLQKPGQSPQILIYRMSNLASGVPDRFSGSGSGTAFTLKISRVEAEDVGVYYCMQHLEYPFTFGPGTKLEIKRTVAAPSVFIFPPSDEQLKSGTASVVCLLNNFYPREAKVQWKVDNALQSGNSQESVTEQDSKDSTYSLSSTLTLSKADYEKHKVYACEVTHQGLSSPVTKSFNRGEC
modifications: afucosylated Fc N-glycan (Fc glycosylation site Asn 297, EU numbering), made with GlymaxX technology
notes: It differs only by lacking fucose on the Fc glycan; also called GLYMAXX; 3F9H1L3L GLYMAXX; copies: 2 + 2
As for B3, the binding result with CD32A (167His), with CD32B, with human FcγRI, with CD16A (176 Phe) and in the assay with CD16A (176 Val) was “binds” throughout. Moreover, in the assay with human FcRn, the Kd amounted to 468 nM.

B4: anti-MICA/B 3F9H1L3L antibody with the two heavy chain S239D and I332E mutations (antibody, human IgG1, kappa)
heavy: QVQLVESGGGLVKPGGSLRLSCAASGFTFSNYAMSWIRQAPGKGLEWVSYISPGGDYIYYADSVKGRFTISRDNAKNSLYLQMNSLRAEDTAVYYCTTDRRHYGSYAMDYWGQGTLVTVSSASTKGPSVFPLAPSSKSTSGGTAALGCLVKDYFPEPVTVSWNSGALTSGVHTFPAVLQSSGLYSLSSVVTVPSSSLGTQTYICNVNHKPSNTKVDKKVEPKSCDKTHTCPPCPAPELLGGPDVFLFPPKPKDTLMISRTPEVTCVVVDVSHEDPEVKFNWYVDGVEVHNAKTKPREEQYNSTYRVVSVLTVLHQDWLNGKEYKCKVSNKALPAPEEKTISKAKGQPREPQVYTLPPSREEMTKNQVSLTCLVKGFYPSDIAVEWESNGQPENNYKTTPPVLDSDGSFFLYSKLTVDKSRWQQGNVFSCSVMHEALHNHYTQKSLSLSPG
light: DIVMTQSPLSLPVTPGEPASISCRSSKSLLHSNLNTYLYWFLQKPGQSPQILIYRMSNLASGVPDRFSGSGSGTAFTLKISRVEAEDVGVYYCMQHLEYPFTFGPGTKLEIKRTVAAPSVFIFPPSDEQLKSGTASVVCLLNNFYPREAKVQWKVDNALQSGNSQESVTEQDSKDSTYSLSSTLTLSKADYEKHKVYACEVTHQGLSSPVTKSFNRGEC
notes: also called 3F9HIL3L S239D and I332E; CLN-619 DM; copies: 2 + 2
As to B4, the binding result in the assay with CD32A (167His), with CD32B, with human FcγRI, with CD16A (176 Phe) and with CD16A (176 Val) was “binds” throughout. Further, the dissociation constant (Kd) in the assay with human FcRn worked out at 504 nM.

B5: 3F9.E4 (antibody, V domains shown)
VH: EVQLQESGEGLVKPGGSLKLSCAASGFTFSNYAMSWVRQTPEKRLEWVAYISPGGDYIYYADTVKGRFTISRDNARNTLYLQMSSLKSEDTAMYYCTTDRRHYGSYAMDYWGQGISVTVSS
VL: DIVMTQAAPSVPVTPGESVSISCRSSKSLLHSNGNTYLYWFLQRPGQSPQLLIYRMSNLASGVPDRFSGSGSGTAFTLRISRVEAEDVGVYYCMQHLEYPFTFGSGTKLEIK
notes: Mouse monoclonal: captured on anti-mouse IgG Fc sensors and detected with anti-mouse IgG; also called 3F9 antibody; anti-MICA/B mAb
As to B5, the “EC50 (read off the curve)” value (in assay [2]; in assay [3]; in [4]; in [5]; in [6]; with Recombinant MICB protein) was about 0.03 µg/mL each time. For the same molecule, the Kd in assay [1] was found to be 1.18 nM. Besides, in [1], the koff was 0.000421 s⁻¹. In addition, in assay [1], the kon came to 383000 M⁻¹ s⁻¹.
